Source: patent US6284879A, “Transport associated protein splice variants” (The General Hospital Corporation, priority 1998, dated 2001)
“Also recorded” adds a separate entry of the source.

Tests used:
[1] = target: T1, TAP1/TAP2 heterodimer (Homo sapiens, UniProt Q03518+Q03519); test: competition with transport of 125I-Peptide RRYQNSTEL in TAP1/TAP2 transfectants; type: cell-based
T1 sequence (Q03518 1-748): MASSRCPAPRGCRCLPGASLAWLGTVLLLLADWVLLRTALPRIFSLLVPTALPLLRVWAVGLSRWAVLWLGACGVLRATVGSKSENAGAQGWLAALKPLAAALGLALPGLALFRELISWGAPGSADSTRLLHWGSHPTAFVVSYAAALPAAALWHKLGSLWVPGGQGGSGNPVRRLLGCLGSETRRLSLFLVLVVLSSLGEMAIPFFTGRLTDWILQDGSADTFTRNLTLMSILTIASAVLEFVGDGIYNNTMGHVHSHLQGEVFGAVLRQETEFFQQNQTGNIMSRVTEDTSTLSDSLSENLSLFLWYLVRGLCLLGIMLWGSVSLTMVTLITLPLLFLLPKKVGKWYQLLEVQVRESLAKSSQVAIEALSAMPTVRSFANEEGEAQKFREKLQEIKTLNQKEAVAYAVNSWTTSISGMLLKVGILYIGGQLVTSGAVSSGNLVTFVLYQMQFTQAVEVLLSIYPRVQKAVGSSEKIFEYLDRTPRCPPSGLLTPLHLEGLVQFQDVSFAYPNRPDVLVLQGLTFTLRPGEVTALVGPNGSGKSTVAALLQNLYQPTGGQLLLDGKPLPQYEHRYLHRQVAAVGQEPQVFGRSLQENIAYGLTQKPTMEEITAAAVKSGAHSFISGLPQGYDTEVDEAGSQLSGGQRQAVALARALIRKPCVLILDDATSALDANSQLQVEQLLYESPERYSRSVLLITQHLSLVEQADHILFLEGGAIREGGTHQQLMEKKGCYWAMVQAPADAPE
T1 sequence (Q03519 1-686 L359K/V379I): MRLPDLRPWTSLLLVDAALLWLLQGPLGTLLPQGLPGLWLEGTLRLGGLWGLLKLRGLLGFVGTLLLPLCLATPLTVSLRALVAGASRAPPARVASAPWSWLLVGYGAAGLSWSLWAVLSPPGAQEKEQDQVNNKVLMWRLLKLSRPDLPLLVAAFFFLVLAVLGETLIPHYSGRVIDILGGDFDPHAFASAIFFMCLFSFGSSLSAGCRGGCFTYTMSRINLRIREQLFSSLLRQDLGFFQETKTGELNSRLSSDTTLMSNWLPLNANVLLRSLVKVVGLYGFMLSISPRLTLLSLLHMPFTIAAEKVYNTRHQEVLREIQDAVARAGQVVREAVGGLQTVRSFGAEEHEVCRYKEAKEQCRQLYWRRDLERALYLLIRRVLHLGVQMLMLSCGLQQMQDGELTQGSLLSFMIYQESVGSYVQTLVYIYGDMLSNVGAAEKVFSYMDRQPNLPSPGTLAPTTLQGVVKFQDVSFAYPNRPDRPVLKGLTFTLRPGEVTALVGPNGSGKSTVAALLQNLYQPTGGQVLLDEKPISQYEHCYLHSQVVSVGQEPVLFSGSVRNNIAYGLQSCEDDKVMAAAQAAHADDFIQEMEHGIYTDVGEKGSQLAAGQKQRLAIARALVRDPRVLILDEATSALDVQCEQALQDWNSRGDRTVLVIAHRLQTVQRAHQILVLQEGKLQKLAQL
Method: (§1) Glycosylated ^125 I Peptide […] (SEQ ID NO: 6), Peptide […] (SEQ ID NO: 7), or Peptide […] (SEQ ID NO: 8) was recovered and measured. The peptide translocation assay was performed essentially as previously described (Neefjes et al., Science, 261:769 (1993); and Momburg et al., J. Exp. Med., 179:1613 (1994)). Briefly, 2.5-5.0×10^6 T2 cell (transfected or untransfected) were washed once with incubation buffer (130 mM KCl, 10 mM NaCl, 1 mM CaC2, 2 mM EDTA, 2 mM MgCl2, 5 mM Hepes, pH 7.3) and permeabilized for 10 minutes at 37° C. with streptolysin O (2 IU/ml) (Wellcome, Beckenham, UK) in 50 μl of incubation buffer. After further addition of 10 μl of 100 mM adenosine triphosphate, 10 μl of ^125 I-labeled peptide (~15 pM), and 30 μl of incubation buffer, cells were incubated for an additional 10 minutes at 37° C. Transport was terminated by the addition of 1 ml of 1% NP-40 detergent, after which nuclei were removed by centrifugation and glycosylated peptides were recovered using concanavalin A-Sepharose (Sigma, St. Louis, Mo.) and quantitated with a gamma counter (LKB-Wallac).
Differential peptide selectivity of the TAP1/TAP2 and TAP1/TAP2iso heterodimers was further investigated by competition experiments with ^125 I-labeled Peptide […] (SEQ ID NO: 6) and various unlabeled peptides: Peptide […] […] The glycosylated peptides were recovered by Con A-Sepharose and quantitated. […]

[2] = target: T2, TAP1/TAP2iso heterodimer (Homo sapiens, UniProt Q03518+Q03519); test: competition with transport of 125I-Peptide RRYQNSTEL in TAP1/TAP2iso transfectants; type: cell-based; details: TAP1/TAP2iso transfectants
T2 construct: expressed in transfected cells
T2 sequence (Q03519 1-653 isoform Q03519-2 L359K/V379I): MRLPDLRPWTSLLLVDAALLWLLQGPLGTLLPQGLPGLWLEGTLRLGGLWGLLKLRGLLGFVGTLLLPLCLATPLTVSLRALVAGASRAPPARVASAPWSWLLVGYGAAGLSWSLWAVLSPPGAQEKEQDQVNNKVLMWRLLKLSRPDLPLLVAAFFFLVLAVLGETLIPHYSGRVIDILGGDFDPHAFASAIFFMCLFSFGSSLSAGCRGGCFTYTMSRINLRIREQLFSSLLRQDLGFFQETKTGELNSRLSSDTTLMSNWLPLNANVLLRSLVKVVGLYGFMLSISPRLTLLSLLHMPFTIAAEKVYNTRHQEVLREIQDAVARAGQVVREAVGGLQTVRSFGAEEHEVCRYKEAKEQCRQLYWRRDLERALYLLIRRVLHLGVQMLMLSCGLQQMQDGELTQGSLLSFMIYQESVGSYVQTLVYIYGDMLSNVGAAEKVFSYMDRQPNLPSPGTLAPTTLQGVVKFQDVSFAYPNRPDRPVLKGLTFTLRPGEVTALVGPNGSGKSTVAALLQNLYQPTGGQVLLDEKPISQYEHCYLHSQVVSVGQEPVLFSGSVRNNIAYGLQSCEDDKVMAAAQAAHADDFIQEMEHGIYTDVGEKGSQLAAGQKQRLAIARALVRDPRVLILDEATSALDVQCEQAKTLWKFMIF
T2 sequence (Q03518 1-748): T1 sequence (Q03518 1-748)
Method: as §1
Differential peptide selectivity of the TAP1/TAP2 and TAP1/TAP2iso heterodimers was further investigated by competition experiments with ^125 I-labeled Peptide […] (SEQ ID NO: 6) and various unlabeled peptides: Peptide […] (SEQ ID NO: 6); Peptide […] (SEQ ID NO: 7); Peptide […] (SEQ ID NO: 8); Peptide […] (SEQ ID NO: 9), the S1-24 fragment of human adrenocorticotropic hormone); and Peptide […] (SEQ ID NO: 10), residues 22 to 30 (human insulin B chain). The iodinated 9-mer Peptide […] was translocated in the presence of different concentrations of unlabeled competition peptides. The glycosylated peptides were recovered by Con A-Sepharose and quantitated. […] (self); (6B) competition of ^125 I-Peptide […] with Peptide […]; (6C) competition of ^125 I-Peptide […] with Peptide […]; and (6D) competition of ^125 I-Peptide […] with Peptide […]; and (6E) competition of ^125 I-Peptide […] with Peptide […].

[3] = test system: TAP1/TAP2iso heterodimer (compared with TAP1/TAP2); test: translocation of 125I-labeled peptides into the ER of permeabilized T2 transfectants; type: cell-based, human; details: 125I-labeled glycosylated peptide recovered from streptolysin O permeabilized T2 transfectants; comparison in words
Method: 10 mM stock solutions of peptides were prepared in dimethyl sulfoxide. Peptides (25 μg) were directly iodinated at unique tyrosine residues with the use of chloramine T (Sigma, St. Louis, Mo.), and free iodine was removed by gel filtration using Sephadex G 10 (Pharmacia) column chromatography.
as §1

[4] = test system: T1 cells (naturally co-express both TAP2 and TAP2iso); details: in words
[5] = test system: HLA class I (A2) on T2 cells; test: restoration of surface expression of HLA class I (A2) on transfected T2 cells, flow cytometry; type: cell-based, human; details: T2 cells transfected with the named cDNAs
Method: Plasmid DNAs were prepared using MAXI-PREP kits (Qiagen). TAP1- and TAP2-deficient T2 cells (donated by P. Cresswell, Howard Hughes Medical Institute, Yale University) (1-2×10^7 cells/ml) were transfected by electroporation with 10 μg of TAP1 and TAP2 or TAP2iso linear plasmid DNA in a 0.4-cm cuvette at 260 V and 960 μF. Subcloning and selection of transfectants were performed by culturing in the presence of hygromycin (250 μg/ml) or histidinol ([…]) for the PREP 4 and PREP8 vectors, respectively.
Immune complexes were detected with fluorescein isothiocyanate-conjugated goat anti-mouse IgG antibodies (Coulter, Hialeah, Fla.) and an Epics Elite flow cytometer (Coulter).
T2 cells were transfected with TAP1 cDNA in combination with TAP2 or TAPiso cDNAs as described above.

[6] = test system: HLA class I molecules in T2 cells; test: HLA class I maturation, endo H sensitivity, pulse-chase in transfected T2 cells; type: cell-based, human; details: expressed with TAP1 in T2 cells, relative to untransfected T2 cells
Description: A preferred method of measuring the rate at which MHC class I antigen complexes exit the ER is through the quantification of MHC class I proteins of the Golgi apparatus sensitive to endoglycosidase H (endo H). Glycosylation of MHC class I proteins in the Golgi apparatus results in an increase in their molecular mass and an increase in resistance of MHC class I-linked glycans to endo H. By [^35 S]methionine pulse-labeling TAP- or TAPiso-expressing cell cultures and chasing with unlabeled methionine at various times, the rate of MHC class I maturation in the ER can be gauged by observing differences in endo H sensitivity, e.g., compared with a TAP-deficient cell line such as T2.
High density cells (1×10^8 cells/ml) were labeled for 15 minutes in the presence of 500 μCi [^35 S]methionine (Amersham), and then chased at the indicated times in the presence of 10 mM unlabeled methionine.
Cells were lysed in an ice-cold lysis buffer, and lysates were incubated overnight at 4° C. with protein A Sepharose beads (Pharmacia) and normal rabbit serum (1:200 dilution). The beads were removed by centrifugation and the resulting supernatant was incubated for 12 hours at 4° C. with protein A beads and monoclonal antibody W6/32 (American Type Culture Collection (ATCC) accession no. HB 95), which recognizes HLA class I molecules. […]

[7] = target: T3, TAP1/TAP2 heterodimer (human); test: cell-based or functional assay
T3 chain 1: T1 sequence (Q03518 1-748)
T3 chain 2: T1 sequence (Q03519 1-686 L359K/V379I)

[8] = target: T4, TAP1/TAP2iso heterodimer (human); test: cell-based or functional assay
T4 chain 1: T1 sequence (Q03518 1-748)
T4 chain 2: T2 sequence (Q03519 1-653 isoform Q03519-2 L359K/V379I)

[9] = unlabeled peptide against transport of 125I-Peptide RRYQNSTEL, read-out: median inhibitory concentration (IC50)

For SYSMEHGRWGKPVGKKRRPVKVYP, the “inhibition of transport of Peptide RRYQNSTEL” value ([1]; in words) was “did not inhibit” and the “inhibition of transport of Peptide RRYQNSTEL” value ([2]; in words) was “did not inhibit”.

With RRYQNSTEL [Peptide RRYQNSTEL] the “amount of translocated peptide, TAP1/TAP2iso compared with TAP1/TAP2” value [3] was “transported to similar extents; also recorded: translocated with equal efficiency”, the IC50 [1, 9] was ~0.15 µM and the IC50 [2, 9] was ~0.15 µM. For the same molecule, the “transportation of test peptides (relative IC50)” value [4] was “equal efficiency”.

B1: TAP2: previously known TAP2 subunit (clone 0121, TAP2 F allele) (protein)
chain: T1 sequence (Q03519 1-686 L359K/V379I)
For B1, the “Mean fluorescence of HLA class 1 (A2) Mean ± SD” value ([5]; four separate experiments, at least three stable clones) was 6.11 ± 1.09 and the “HLA class I maturation as reflected in decreasing endo H sensitivity” value [6] was “increasing HLA class I maturation”.

RRYQNSTEL [unlabeled Peptide RRYQNSTEL] was tested, and the “IC50 of inhibition of transport of 125I-labeled Peptide …” value [7] was ~0.15 µM and the “IC50 of inhibition of transport of 125I-labeled Peptide …” value [8] was ~0.15 µM.

RGFFYTPKA [Peptide RGFFYTPKA] was tested, and the “IC50 of inhibition of transport of 125I-labeled Peptide …” value [7] was 0.3 µM and the “IC50 of inhibition of transport of 125I-labeled Peptide …” value [8] was 0.11 µM.

B2: TAP2iso: TAP2 splice variant lacking exon 11 and containing exon 12; 653 amino acids (protein)
chain: T2 sequence (Q03519 1-653 isoform Q03519-2 L359K/V379I)
For B2, the “surface expression of HLA/MHC class I” value ([5]; in words) was “no effect” and the “HLA class I maturation as reflected in decreasing endo H sensitivity” value [6] was “increasing HLA class I maturation”.
